Measured values taken from the Immune Epitope Database (IEDB).
pIC50, pKd: −log10 of the molar value.

Experiments:
HLA-A*02:01 [1] = test: IEDB peptide-MHC binding, purified MHC/competitive/radioactivity; filed as Kd, often an IC50 or EC50 that approximates it; ≥ and ≤ were set here for values at or beyond the usual limits of such assays
HLA-A*02:17 = test: as above
HLA-A*11:01 = test: IEDB peptide-MHC binding, purified MHC/competitive/fluorescence; ≥ and ≤ were set here for values at or beyond the usual limits of such assays
HLA-A*24:02 = test: as above; settings: source organism: Variola virus
HLA-A*31:01 = test: IEDB peptide-MHC binding, purified MHC/competitive/radioactivity; filed as Kd, often an IC50 or EC50 that approximates it; ≥ and ≤ were set here for values at or beyond the usual limits of such assays; settings: source organism: Vaccinia virus WR
HLA-A*33:01 = test: as above; settings: source organism: Vaccinia virus WR
HLA-A*03:01 [2] = test: as above; settings: source organism: Vaccinia virus WR
HLA-A*68:01 = test: as above; settings: source organism: Vaccinia virus WR
HLA-B*51:01 [3] = test: as above; settings: source organism: Dengue virus 2 Peru/IQT2913/1996
HLA-A*02:03 = test: as above
HLA-B*39:01 = test: IEDB peptide-MHC binding, purified MHC/competitive/fluorescence; filed as Kd, often an IC50 or EC50 that approximates it; ≥ and ≤ were set here for values at or beyond the usual limits of such assays
HLA-B*15:17 = test: as above
HLA-A*02:01 [4] = test: as above
HLA-B*46:01 = test: as above
HLA-B*15:01 [5] = test: as above
HLA-B*57:01 = test: as above
HLA-B*51:01 [6] = test: as above
HLA-B*18:01 [7] = test: as above
HLA-A*69:01 [8] = test: as above
HLA-A*26:01 = test: as above
HLA-B*27:05 = test: IEDB peptide-MHC binding, purified MHC/direct/fluorescence; filed as Kd, often an IC50 or EC50 that approximates it; ≥ and ≤ were set here for values at or beyond the usual limits of such assays; settings: source organism: Reston ebolavirus - Reston
HLA-A*02:01 [9] = test: IEDB peptide-MHC binding, purified MHC/competitive/fluorescence; ≥ and ≤ were set here for values at or beyond the usual limits of such assays
HLA-A*03:01 [10] = test: IEDB peptide-MHC binding, purified MHC/competitive/fluorescence; filed as Kd, often an IC50 or EC50 that approximates it; ≥ and ≤ were set here for values at or beyond the usual limits of such assays
HLA-B*27:03 = test: as above
HLA-A*02:19 = test: IEDB peptide-MHC binding, purified MHC/direct/fluorescence; filed as Kd, often an IC50 or EC50 that approximates it; ≥ and ≤ were set here for values at or beyond the usual limits of such assays
HLA-A*02:12 = test: as above
HLA-B*15:01 [11] = test: IEDB peptide-MHC binding, purified MHC/competitive/fluorescence; ≥ and ≤ were set here for values at or beyond the usual limits of such assays; settings: source organism: Vaccinia virus
HLA-A*30:01 = test: IEDB peptide-MHC binding, purified MHC/competitive/radioactivity; filed as Kd, often an IC50 or EC50 that approximates it; ≥ and ≤ were set here for values at or beyond the usual limits of such assays; settings: source organism: Dengue virus 4 Philippines/H241/1956
HLA-B*08:01 = test: as above
HLA-A*02:01 [12] = test: IEDB peptide-MHC binding, purified MHC/direct/fluorescence; filed as Kd, often an IC50 or EC50 that approximates it; ≥ and ≤ were set here for values at or beyond the usual limits of such assays
HLA-A*69:01 [13] = test: as above
HLA-B*15:01 [14] = test: IEDB peptide-MHC binding, purified MHC/competitive/radioactivity; filed as Kd, often an IC50 or EC50 that approximates it; ≥ and ≤ were set here for values at or beyond the usual limits of such assays; settings: source organism: Dengue virus 3 China/80-2/1980
HLA-B*18:01 [15] = test: IEDB peptide-MHC binding, purified MHC/direct/fluorescence; filed as Kd, often an IC50 or EC50 that approximates it; ≥ and ≤ were set here for values at or beyond the usual limits of such assays; settings: source organism: Influenza A virus (A/camel/Mongolia/1982(H1N1))
HLA-B*40:01 = test: as above; settings: source organism: Influenza A virus (A/camel/Mongolia/1982(H1N1))
HLA-B*44:02 = test: as above; settings: source organism: Influenza A virus (A/camel/Mongolia/1982(H1N1))
HLA-A*02:11 = test: as above; settings: source organism: Sapporo rat virus
HLA-A*68:02 = test: IEDB peptide-MHC binding, purified MHC/competitive/radioactivity; filed as Kd, often an IC50 or EC50 that approximates it; ≥ and ≤ were set here for values at or beyond the usual limits of such assays; settings: source organism: Dengue virus 1 Brazil/97-11/1997
HLA-A*02:06 = test: as above
[16] = source organism: Dengue virus 4 Philippines/H241/1956
[17] = source organism: Dengue virus 2 Thailand/NGS-C/1944
[18] = source organism: Dengue virus 1 Singapore/S275/1990
[19] = source organism: Reston ebolavirus - Reston (1989)
[20] = source organism: Vaccinia virus
[21] = source organism: Neembucu hantavirus
[22] = source organism: Orthohantavirus negraense
[23] = source organism: Zaire ebolavirus
[24] = source organism: Ebola virus - Mayinga, Zaire, 1976
[25] = source organism: Dengue virus 1 Brazil/97-11/1997
[26] = source organism: Dengue virus 3 China/80-2/1980
[27] = source organism: Sudan ebolavirus
[28] = source organism: Sapporo rat virus
[29] = source organism: Dengue virus 4 Dominica/814669/1981
[30] = source organism: Dengue virus 2 Jamaica/1409/1983

ALPVYLMTL
pKd (HLA-A*02:01 [1]; [16]): 7.96 | pKd (HLA-A*02:17; [16]): 8.75

DIIIAVARK
pIC50 (HLA-A*11:01; source organism: Variola virus): ≤ 3.75 | pIC50 (HLA-A*24:02): 4.21

ETITEKTFK
pKd (HLA-A*31:01): 6.08 | pKd (HLA-A*33:01): 8.59 | pKd (HLA-A*03:01 [2]): 5.51 | pKd (HLA-A*68:01): 7.92 | pIC50 (HLA-A*11:01; source organism: Vaccinia virus Copenhagen): 5.25

FLFLMSGRGI
pKd (HLA-A*02:01 [1]; [17]): 8.38 | pKd (HLA-A*02:17; [17]): 6.14 | pKd (HLA-B*51:01 [3]): 5.10 | pKd (HLA-A*02:03; source organism: Dengue virus 2 Peru/IQT2913/1996): 8.20

GLLCVMASSV
pKd (HLA-A*02:01 [1]; [18]): 7.94 | pKd (HLA-A*02:17; [18]): 6.82 | pKd (HLA-A*02:03; [18]): 7.59

GRYNLVPPK
pKd (HLA-B*39:01; [19]): ≤ 4.70 | pKd (HLA-B*15:17; [19]): ≤ 4.70 | pKd (HLA-A*02:01 [4]; [19]): ≤ 4.70 | pKd (HLA-B*46:01; [19]): ≤ 4.70 | pKd (HLA-B*15:01 [5]; [19]): ≤ 4.70 | pKd (HLA-B*57:01; [19]): ≤ 4.70 | pKd (HLA-B*51:01 [6]; [19]): ≤ 4.70 | pKd (HLA-B*18:01 [7]; [19]): ≤ 4.70 | pKd (HLA-A*69:01 [8]; [19]): ≤ 4.70 | pKd (HLA-A*26:01; [19]): ≤ 4.70 | pKd (HLA-B*27:05): 7.01

GVVVSTNRL
pIC50 (HLA-A*02:01 [9]; [20]): 5.02 | pIC50 (HLA-A*11:01; [20]): ≤ 4.10

ILAKAIFKL
pKd (HLA-A*02:01 [1]; [16]): 7.85 | pKd (HLA-A*02:17; [16]): 7.42

ILYMLSWGK
pKd (HLA-B*39:01; [21]): ≤ 4.70 | pKd (HLA-B*15:17; [21]): ≤ 4.70 | pKd (HLA-A*03:01 [10]; [21]): 6.81 | pKd (HLA-B*46:01; [21]): ≤ 4.70 | pKd (HLA-B*15:01 [5]; [21]): ≤ 4.70 | pKd (HLA-B*57:01; [21]): ≤ 4.70 | pKd (HLA-B*51:01 [6]; [21]): ≤ 4.70 | pKd (HLA-B*18:01 [7]; [21]): ≤ 4.70 | pKd (HLA-A*69:01 [8]; [21]): ≤ 4.70 | pKd (HLA-A*26:01; [21]): ≤ 4.70 | pKd (HLA-B*27:03; [21]): ≤ 4.70 | pKd (HLA-A*02:19; [22]): ≤ 4.70 | pKd (HLA-A*02:12; [22]): ≤ 4.70

KCIKKGVEY
pIC50 (HLA-B*15:01 [11]): ≤ 4.04

KIEAPLLLH
pKd (HLA-A*03:01 [10]; source organism: Escherichia coli str. K-12 substr. MG1655): 6.94

KMKKKTWLV
pKd (HLA-A*30:01): 7.76 | pKd (HLA-A*02:01 [1]; [16]): 7.18 | pKd (HLA-B*08:01; [16]): 7.03 | pKd (HLA-A*02:17; [16]): 7.19 | pKd (HLA-A*02:03; [16]): 7.51

LGLDDQEKK
pIC50 (HLA-A*11:01; [23]): 4.51

LLADGLAKA
pKd (HLA-A*02:01 [12]; [24]): 7.59 | pKd (HLA-A*69:01 [13]; [24]): 6.07 | pKd (HLA-A*02:12; source organism: Ravn virus - Ravn, Kenya, 1987): 8.40

LLMLLPTAL
pKd (HLA-A*02:01 [1]; [18]): 8.12 | pKd (HLA-B*08:01; [25]): 8.19 | pKd (HLA-A*02:17; [18]): 7.94 | pKd (HLA-A*02:03; [25]): 7.51

LMMMLPATL
pKd (HLA-B*08:01; [26]): 7.73 | pKd (HLA-A*02:17; [26]): 6.64 | pKd (HLA-B*15:01 [14]): 7.06 | pKd (HLA-A*02:03; [26]): 8.18

MEYDAVATT
pKd (HLA-B*18:01 [15]): ≥ 9.00 | pKd (HLA-B*40:01): 6.15 | pKd (HLA-B*44:02): ≤ 4.70

MLLILCTSQI
pKd (HLA-A*02:01 [1]; [18]): 7.12 | pKd (HLA-A*02:17; [18]): 6.74

MMMLPATLA
pKd (HLA-A*02:01 [1]; [26]): 7.56 | pKd (HLA-A*02:17; [26]): 6.97 | pKd (HLA-A*02:03; [26]): 7.54

NCYNLEIKK
pIC50 (HLA-A*11:01; [27]): ≤ 4.14

RLCRFRKSK
pKd (HLA-A*03:01 [10]; source organism: Yersinia pestis Nepal516): 6.92

SLCLMMMLPA
pKd (HLA-A*02:01 [1]; [26]): 7.18 | pKd (HLA-A*02:17; [26]): 4.93

SLTECPTFL
pKd (HLA-A*02:01 [12]; source organism: Amur virus): ≥ 9.00 | pKd (HLA-A*02:19; [28]): 7.39 | pKd (HLA-A*69:01 [13]; source organism: Amur virus): ≤ 4.70 | pKd (HLA-A*02:12; [28]): 8.30 | pKd (HLA-A*02:11): ≥ 9.00

SMPLGVVTN
pIC50 (HLA-A*02:01 [9]; [27]): ≤ 3.94 | pIC50 (HLA-A*11:01; [27]): ≤ 3.79

TLATGPILTL
pKd (HLA-A*02:01 [1]; [29]): 7.18 | pKd (HLA-A*02:17; [29]): 6.16 | pKd (HLA-A*02:03; [29]): 7.92

TLQVSDVDK
pIC50 (HLA-A*11:01; [23]): 4.38

TLTAAVLMLV
pKd (HLA-A*02:01 [1]; [18]): 8.40 | pKd (HLA-A*02:17; [18]): 5.97 | pKd (HLA-A*02:03; [25]): 8.46 | pKd (HLA-A*68:02): 8.80

VILAGPIPV
pKd (HLA-A*02:01 [1]; [16]): 8.17 | pKd (HLA-A*02:17; [16]): 6.00 | pKd (HLA-A*02:06; [16]): 6.88

VLMMRTTWA
pKd (HLA-A*02:01 [1]; [30]): 7.46 | pKd (HLA-B*08:01; [30]): 7.89 | pKd (HLA-A*02:17; [30]): 4.82 | pKd (HLA-A*02:03; [30]): 7.87

VLVGVVTLYL
pKd (HLA-A*02:01 [1]; [30]): 7.21 | pKd (HLA-A*02:17; [30]): 5.80

WLVHRQWFL
pKd (HLA-A*02:01 [1]; [30]): 8.62 | pKd (HLA-B*08:01; [30]): 8.06 | pKd (HLA-A*02:17; [30]): 7.21 | pKd (HLA-A*02:06; [30]): 6.81

YSDNEMLTH
pKd (HLA-B*39:01; source organism: Homo sapiens): ≤ 4.70 | pKd (HLA-B*15:17; source organism: Homo sapiens): ≤ 4.70 | pKd (HLA-A*02:01 [4]; source organism: Homo sapiens): ≤ 4.70 | pKd (HLA-B*46:01; source organism: Homo sapiens): ≤ 4.70 | pKd (HLA-B*15:01 [5]; source organism: Homo sapiens): ≤ 4.70 | pKd (HLA-B*57:01; source organism: Homo sapiens): ≤ 4.70 | pKd (HLA-B*51:01 [6]; source organism: Homo sapiens): ≤ 4.70 | pKd (HLA-B*18:01 [7]; source organism: Homo sapiens): ≤ 4.70 | pKd (HLA-A*69:01 [8]; source organism: Homo sapiens): ≤ 4.70 | pKd (HLA-A*26:01; source organism: Homo sapiens): ≤ 4.70 | pKd (HLA-B*27:03; source organism: Homo sapiens): ≤ 4.70
